Source: article PMC3328386 (The Journal of Cell Biology, 2012)

How the values were obtained:
[1] = biological target: recombinant SUMO1 (UniProt P63165 1-97); assay: ITC
[2] = biological target: recombinant SUMO2 (UniProt P61956 1-95); assay: ITC
Sequence of recombinant SUMO2 (P61956 whole entry): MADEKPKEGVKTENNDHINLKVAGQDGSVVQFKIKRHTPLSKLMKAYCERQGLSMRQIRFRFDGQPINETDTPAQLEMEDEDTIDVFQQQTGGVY

Sequence of recombinant SUMO1 (P63165 1-97): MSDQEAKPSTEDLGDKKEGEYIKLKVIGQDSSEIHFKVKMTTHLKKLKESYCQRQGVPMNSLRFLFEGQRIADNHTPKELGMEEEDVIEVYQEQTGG

- Kd [1]: ~3 µM
- Kd [2]: ~60 µM
B1: recombinant HERC2 ZZ domain (amino acids 2702–2755), WT (domain or fragment)
chain: IHPGVTCDGCQMFPINGSRFKCRNCDDFDFCETCFKTKKHNTRHTFGRINEPGQ
